Earlier results, collected in patent US7850723B1, “Method and apparatus for patient temperature control employing titration of therapy using EEG signals” (Innercool Therapies, Inc., priority 2005, dated 2010).

B1: tissue plasminogen activator (protein, UniProt P00750 36-562, looked up)
Tissue-type plasminogen …: SYQVICRDEKTQMIYQQHQSWLRPVLRSNRVEYCWCNSGRAQCHSVPVKSCSEPRCFNGGTCQQALYFSDFVCQCPEGFAGKCCEIDTRATCYEDQGISYRGTWSTAESGAECTNWNSSALAQKPYSGRRPDAIRLGLGNHNYCRNPDRDSKPWCYVFKAGKYSSEFCSTPACSEGNSDCYFGNGSAYRGTHSLTESGASCLPWNSMILIGKVYTAQNPSAQALGLGKHNYCRNPDGDAKPWCHVLKNRRLTWEYCDVPSCSTCGLRQYSQPQFRIKGGLFADIASHPWQAAIFAKHRRSPGERFLCGGILISSCWILSAAHCFQERFPPHHLTVILGRTYRVVPGEEEQKFEVEKYIVHKEFDDDTYDNDIALLQLKSDSSRCAQESSVVRTVCLPPADLQLPDWTECELSGYGKHEALSPFYSERLKEAHVRLYPSSRCTSQHLLNRTVTDNMLCAGDTRSGGPQANLHDACQGDSGGPLVCLNDGRMTLVGIISWGLGCGQKDVPGVYTKVTNYLDWIRDNMRP
B2: α2-antiplasmin (protein, UniProt P08697 40-491, looked up)
Alpha-2-antiplasmin: NQEQVSPLTLLKLGNQEPGGQTALKSPPGVCSRDPTPEQTHRLARAMMAFTADLFSLVAQTSTCPNLILSPLSVALALSHLALGAQNHTLQRLQQVLHAGSGPCLPHLLSRLCQDLGPGAFRLAARMYLQKGFPIKEDFLEQSEQLFGAKPVSLTGKQEDDLANINQWVKEATEGKIQEFLSGLPEDTVLLLLNAIHFQGFWRNKFDPSLTQRDSFHLDEQFTVPVEMMQARTYPLRWFLLEQPEIQVAHFPFKNNMSFVVLVPTHFEWNVSQVLANLSWDTLHPPLVWERPTKVRLPKLYLKHQMDLVATLSQLGLQELFQAPDLRGISEQSLVVSGVQHQSTLELSEVGVEAAAATSIAMSRMSLSSFSVNRPFLFFIFEDTTGLPLFVGSVRNPNPSAPRELKEQQDSPGNKDFLQSLKGFPRGDKLFGPDLKLVPPMEEDYPQFGSPK

Key:
clots [1] = settings: tPA 0.3, 1.0 and 3.0 μg/ml; incubated at 24° C. to 40° C.
clots [2] = settings: clots treated with 2.5 μg/ml tPA; incubated at 37, 25, 10, 0 and −8° C.
plasmin = plasmin (Homo sapiens, UniProt P00747)
Chain of plasmin (P00747 581-810 limits assumed, species assumed): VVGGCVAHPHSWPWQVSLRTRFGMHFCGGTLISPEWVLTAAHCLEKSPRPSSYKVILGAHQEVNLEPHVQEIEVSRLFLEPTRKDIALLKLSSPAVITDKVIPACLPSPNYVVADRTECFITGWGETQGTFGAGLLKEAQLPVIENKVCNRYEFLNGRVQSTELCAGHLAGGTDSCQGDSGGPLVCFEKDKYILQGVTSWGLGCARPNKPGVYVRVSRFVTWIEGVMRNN
Chain of plasmin (P00747 97-580 partner limits assumed, species assumed): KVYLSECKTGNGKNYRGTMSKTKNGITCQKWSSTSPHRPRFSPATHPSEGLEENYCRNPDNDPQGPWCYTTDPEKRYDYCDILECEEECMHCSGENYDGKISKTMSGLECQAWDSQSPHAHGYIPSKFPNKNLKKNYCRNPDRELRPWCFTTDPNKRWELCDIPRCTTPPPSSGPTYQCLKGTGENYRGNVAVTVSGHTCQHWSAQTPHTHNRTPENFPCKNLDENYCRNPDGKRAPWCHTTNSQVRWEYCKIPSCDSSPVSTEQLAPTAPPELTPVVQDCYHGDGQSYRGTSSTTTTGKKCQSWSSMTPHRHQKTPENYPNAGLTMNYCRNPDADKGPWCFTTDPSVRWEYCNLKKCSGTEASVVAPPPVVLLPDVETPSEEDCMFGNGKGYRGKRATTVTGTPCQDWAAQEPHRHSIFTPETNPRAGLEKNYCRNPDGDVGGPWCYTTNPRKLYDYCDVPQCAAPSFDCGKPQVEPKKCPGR

Molecule	amount of clot lysis (clots [1])	plasminogen activation (clots [2])	time required to inactivate plasmin bound to a fibrin surface (plasmin)
B1	the amount of clot lysis at lower temperatures was less than that at higher temperatures	relatively high at low temperatures	–
B2	–	–	about 10 seconds
